The Kd is a measure of binding affinity in units of concentration. Low readings indicate tighter binding, high ones weaker binding. In general, koff refers to the rate constant with which the complex falls apart. As usually defined, the kon is the second-order rate constant of association. Low readings indicate slower complex formation, high ones faster complex formation.

The target in this assay is T1, 재조합 인간 TIGIT 단백질 (acrobiosystems, China) (human, UniProt Q495A1 22-141).
T1 construct: Bought recombinant protein; also called hTIGIT
T1 sequence: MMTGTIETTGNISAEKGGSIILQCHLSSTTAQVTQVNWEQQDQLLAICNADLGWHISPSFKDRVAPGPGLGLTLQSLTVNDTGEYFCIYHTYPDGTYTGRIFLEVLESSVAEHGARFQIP
Nature of the assay: SPR (Biacore T200), multi-cycle kinetics, antibody captured, TIGIT as analyte, 1:1 model. For orientation: Surface plasmon resonance follows binding to a sensor surface in real time, without labels.

B1: 마우스 항-TIGIT 단클론 항체 3F8 (mouse backbone mIgG1) (antibody, V domains shown)
VH: EVQLQQSGPELVKPGASMKISCKASGYSFTDYIMNWVKQSHGKNLEWIGLSIPYNGGTSYNQKFEGKATLTVDKSSSTAYMELLSLTSEDSAVYYCARGIKGYFAMDYWGQGTSVTVSS
VL: DVVVTQTPLSLPVSFGDQVSISCRSSQSLVNSFGKTYLSWFLHKPGQSPQLIMYGVSNRFSGVPDRFSGSGSGTDFTLKISTIKPEDLGMYYCLQGTHQPWTFGGGTKLEIK
notes: also called 항-TIGIT 3F8 항체; 클론 3F8
B1 came in with a dissociation constant Kd of 0.986 nM, an off-rate (koff) of 0.000216 s⁻¹ and an on-rate constant (kon) of 219000 M⁻¹ s⁻¹.

B2: 마우스 항-TIGIT 단클론 항체 2B7 (mouse backbone mIgG1) (antibody, V domains shown)
VH: EVQLQQSGPELVKPGASVKISCKTSGSTFTEYTMHWVKQSHGKSLEWIGGLNPNNGGTSYNQRFKDRATLTVDKSSSTAYMELRSLTSEDSAVYYCTRGTYYDYSFAYWGQGTLVTVSA
VL: DIVMTQSHKFMSTSVGDRVSITCKASHYVSTAVAWYQQKPGQSPKLLIYSPSYRYTGVPDRFTGSGSGTDFTFTISSVQAEDLAVYYCHQHYSTPWTFGGGTKLEIK
notes: also called 항-TIGIT 2B7 항체; 클론 2B7
B2: binding was characterised by a dissociation constant (Kd) of 1.89 nM, the koff was 0.000445 s⁻¹ and the kon stood at 235000 M⁻¹ s⁻¹.

(Values after patent KR20230168598A (dated 2023).)
